Results reported in paper PMC9482650, “Quantitative fragmentomics allow affinity mapping of interactomes” (Nature Communications, 2022).

T1: SNTG1, Q9NSN8
T1 sequence (Q9NSN8 52-150, limits assumed, looked up): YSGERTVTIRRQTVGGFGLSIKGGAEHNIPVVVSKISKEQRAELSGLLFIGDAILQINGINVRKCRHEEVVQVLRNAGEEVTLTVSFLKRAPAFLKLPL

T2: GRIP1_5, Q9Y3R0
T2 sequence (Q9Y3R0 568-668, limits assumed, looked up): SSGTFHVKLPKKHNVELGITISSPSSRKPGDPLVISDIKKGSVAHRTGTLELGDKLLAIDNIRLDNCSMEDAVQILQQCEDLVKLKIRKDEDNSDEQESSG

T3: HTRA3, P83110
T3 sequence (P83110 354-453, limits assumed, looked up): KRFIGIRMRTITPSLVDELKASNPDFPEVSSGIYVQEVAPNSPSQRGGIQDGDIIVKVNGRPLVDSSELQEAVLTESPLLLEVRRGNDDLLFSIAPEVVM

T4: MPDZ_5, O75970
T4 sequence (O75970 695-796, limits assumed, looked up): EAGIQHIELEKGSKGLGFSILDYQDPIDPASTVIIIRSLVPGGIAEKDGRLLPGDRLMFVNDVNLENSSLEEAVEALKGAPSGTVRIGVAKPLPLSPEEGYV

T5: LRRC7, Q96NW7
T5 sequence (Q96NW7 1440-1537, limits assumed, looked up): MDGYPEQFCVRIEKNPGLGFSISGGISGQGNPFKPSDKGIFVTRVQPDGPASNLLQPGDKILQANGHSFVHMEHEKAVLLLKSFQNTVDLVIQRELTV

T6: LIN7B, Q9HAP6
T6 sequence (Q9HAP6 88-185, limits assumed, looked up): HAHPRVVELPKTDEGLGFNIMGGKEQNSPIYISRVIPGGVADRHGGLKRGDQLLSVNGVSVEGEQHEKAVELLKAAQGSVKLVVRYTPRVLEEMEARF

T7: ARHGAP21, Q5T5U3
T7 sequence (Q5T5U3 45-169, limits assumed, looked up): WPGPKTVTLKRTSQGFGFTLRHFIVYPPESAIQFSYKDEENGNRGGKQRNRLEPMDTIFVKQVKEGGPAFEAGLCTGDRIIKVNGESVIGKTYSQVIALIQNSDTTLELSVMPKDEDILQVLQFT

T8: LNX2_3, Q8N448
T8 sequence (Q8N448 463-564, limits assumed, looked up): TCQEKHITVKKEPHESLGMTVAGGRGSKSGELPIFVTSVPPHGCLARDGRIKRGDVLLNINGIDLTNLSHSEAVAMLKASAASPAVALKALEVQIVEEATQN

T9: SNTB1, Q13884
T9 sequence (Q13884 107-205, limits assumed, looked up): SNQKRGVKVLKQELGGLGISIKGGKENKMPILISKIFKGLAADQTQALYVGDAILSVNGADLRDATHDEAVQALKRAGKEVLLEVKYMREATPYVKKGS

T10: CARD11, Q9BXL7
T10 sequence (Q9BXL7 662-765, limits assumed, looked up): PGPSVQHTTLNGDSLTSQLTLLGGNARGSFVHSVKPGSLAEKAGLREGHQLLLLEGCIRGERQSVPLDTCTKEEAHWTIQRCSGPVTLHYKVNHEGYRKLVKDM

T11: LIN7A, O14910
T11 sequence (O14910 103-200, limits assumed, looked up): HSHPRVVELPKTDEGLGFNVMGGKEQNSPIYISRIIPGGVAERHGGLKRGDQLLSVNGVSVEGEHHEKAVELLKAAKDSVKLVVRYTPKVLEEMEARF

T12: TIAM2, Q8IVF5
T12 sequence (Q8IVF5 885-986, limits assumed, looked up): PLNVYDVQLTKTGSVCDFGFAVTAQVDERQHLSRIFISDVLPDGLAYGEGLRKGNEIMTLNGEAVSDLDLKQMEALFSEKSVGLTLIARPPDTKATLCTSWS

T13: NHERF3_4, Q5T2W1
T13 sequence (Q5T2W1 373-468, limits assumed, looked up): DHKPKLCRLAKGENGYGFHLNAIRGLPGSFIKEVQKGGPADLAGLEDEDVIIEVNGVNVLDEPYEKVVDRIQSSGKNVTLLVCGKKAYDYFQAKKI


How the values were obtained:
Assay in all cases: holdup assay
Parameters in all cases: key: below the threshold = too weak to quantify, mostly under pKd 3.1 to 4
Settings in all cases: plain residues with an end cap or a label only (N-terminal biotin on a linker: ttds)
[1] = molecular target: AHNAK1, Q09666
[2] = molecular target: Inadl_1, Q8NI35
[3] = molecular target: T1, SNTG1, Q9NSN8
[4] = molecular target: T2, GRIP1_5, Q9Y3R0
[5] = molecular target: PICK1, Q9NRD5
[6] = molecular target: T3, HTRA3, P83110
[7] = molecular target: GRID2IP_1, A4D2P6
[8] = molecular target: T4, MPDZ_5, O75970
[9] = molecular target: T5, LRRC7, Q96NW7
[10] = molecular target: GRASP, Q7Z6J2
[11] = molecular target: Inadl_9, Q8NI35
[12] = molecular target: T6, LIN7B, Q9HAP6
[13] = molecular target: T7, ARHGAP21, Q5T5U3
[14] = molecular target: MAGI2_6, Q86UL8
[15] = molecular target: T8, LNX2_3, Q8N448
[16] = molecular target: MAGI1_1, Q96QZ7
[17] = molecular target: T9, SNTB1, Q13884
[18] = molecular target: T10, CARD11, Q9BXL7
[19] = molecular target: IL16_4, Q14005
[20] = molecular target: T11, LIN7A, O14910
[21] = molecular target: T12, TIAM2, Q8IVF5
[22] = molecular target: TJP2_1, Q9UDY2
[23] = molecular target: T13, NHERF3_4, Q5T2W1
[24] = molecular target: PDZRN4_1, Q6ZMN7
Chain of PDZRN4_1, Q6ZMN7 (Q6ZMN7 213-318): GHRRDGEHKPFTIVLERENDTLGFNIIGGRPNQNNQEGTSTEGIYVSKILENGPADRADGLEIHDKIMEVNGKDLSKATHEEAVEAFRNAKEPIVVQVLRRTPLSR

Chain of AHNAK1, Q09666 (Q09666 4-100): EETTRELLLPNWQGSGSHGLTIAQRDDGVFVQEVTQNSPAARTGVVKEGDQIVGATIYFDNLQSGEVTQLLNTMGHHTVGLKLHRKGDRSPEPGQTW
Chain of Inadl_9, Q8NI35 (Q8NI35 1530-1615): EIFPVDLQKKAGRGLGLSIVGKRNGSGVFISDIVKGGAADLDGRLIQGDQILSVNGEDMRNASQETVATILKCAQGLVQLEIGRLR
Chain of TJP2_1, Q9UDY2 (Q9UDY2 24-128): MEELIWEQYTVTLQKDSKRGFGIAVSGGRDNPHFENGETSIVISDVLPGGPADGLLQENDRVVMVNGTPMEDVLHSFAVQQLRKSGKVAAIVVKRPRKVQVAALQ
Chain of GRASP, Q7Z6J2 (Q7Z6J2 96-193): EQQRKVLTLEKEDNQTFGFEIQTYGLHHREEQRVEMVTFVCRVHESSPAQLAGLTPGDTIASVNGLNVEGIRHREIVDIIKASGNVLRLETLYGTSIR
Chain of Inadl_1, Q8NI35 (Q8NI35 113-229): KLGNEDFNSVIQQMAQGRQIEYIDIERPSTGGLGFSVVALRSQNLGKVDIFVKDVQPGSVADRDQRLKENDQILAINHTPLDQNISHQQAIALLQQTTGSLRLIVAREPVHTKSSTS
Chain of MAGI2_6, Q86UL8 (Q86UL8 1141-1229): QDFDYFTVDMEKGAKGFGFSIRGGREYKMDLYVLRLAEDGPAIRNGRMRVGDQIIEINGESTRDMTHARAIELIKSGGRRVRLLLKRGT
Chain of GRID2IP_1, A4D2P6 (A4D2P6 1-87): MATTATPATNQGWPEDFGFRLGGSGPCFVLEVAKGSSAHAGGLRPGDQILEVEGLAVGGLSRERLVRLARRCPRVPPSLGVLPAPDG
Chain of IL16_4, Q14005 (Q14005 1229-1329): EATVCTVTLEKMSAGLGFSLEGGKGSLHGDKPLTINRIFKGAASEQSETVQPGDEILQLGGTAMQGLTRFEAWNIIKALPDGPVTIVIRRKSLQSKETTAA
Chain of MAGI1_1, Q96QZ7 (Q96QZ7 1-106): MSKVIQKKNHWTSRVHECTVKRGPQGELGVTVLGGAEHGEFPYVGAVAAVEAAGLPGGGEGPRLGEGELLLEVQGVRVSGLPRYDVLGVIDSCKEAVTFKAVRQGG
Chain of PICK1, Q9NRD5 (Q9NRD5 17-115): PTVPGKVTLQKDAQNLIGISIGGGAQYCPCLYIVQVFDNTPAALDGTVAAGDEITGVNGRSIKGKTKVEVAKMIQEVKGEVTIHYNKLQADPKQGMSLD

Binder | pKd [1] | pKd [2] | pKd [3] | pKd [4] | pKd [5] | pKd [6] | pKd [7] | pKd [8] | pKd [9] | pKd [10] | pKd [11] | pKd [12] | pKd [13] | pKd [14] | pKd [15] | pKd [16] | pKd [17] | pKd [18] | pKd [19] | pKd [20] | further results
TEEEVQDTRL [CFTR, P13569] | below the threshold | below the threshold | below the threshold | below the threshold | below the threshold | below the threshold | below the threshold | below the threshold | below the threshold | below the threshold | below the threshold | below the threshold | below the threshold | below the threshold | below the threshold | below the threshold | 4.2 | below the threshold | below the threshold | below the threshold | pKd [21]: below the threshold; pKd [22]: below the threshold; pKd [23]: 4.08; pKd [24]: 3.99
NYWPGKETQL [SLCO1C1, Q9NYB5] | below the threshold | 4.12 | 5.39 | below the threshold | below the threshold | below the threshold | below the threshold | below the threshold | 4.31 | below the threshold | below the threshold | 4.68 | 3.94 | 4.42 | below the threshold | below the threshold | 5.42 | below the threshold | below the threshold | 4.14 | pKd [21]: below the threshold; pKd [22]: below the threshold; pKd [23]: below the threshold; pKd [24]: 5.47
DEDQHTQITKV [PTEN, P60484] | below the threshold | 3.77 | 4.01 | 3.72 | 3.77 | below the threshold | below the threshold | 3.46 | below the threshold | 4.72 | below the threshold | 3.49 | below the threshold | 4.07 | below the threshold | below the threshold | 4.08 | below the threshold | 3.5 | below the threshold | pKd [21]: below the threshold; pKd [22]: below the threshold; pKd [23]: 3.53; pKd [24]: 3.62
